According to patent US20140227292A1 (PROTHENA BIOSCIENCES, published 2014):

T1: human MCAM (melanoma cell adhesion molecule), expressed on transfected CHO cells (human, UniProt P43121 24-646)
T1 construct: also called hMCAM; CD146
T1 chain: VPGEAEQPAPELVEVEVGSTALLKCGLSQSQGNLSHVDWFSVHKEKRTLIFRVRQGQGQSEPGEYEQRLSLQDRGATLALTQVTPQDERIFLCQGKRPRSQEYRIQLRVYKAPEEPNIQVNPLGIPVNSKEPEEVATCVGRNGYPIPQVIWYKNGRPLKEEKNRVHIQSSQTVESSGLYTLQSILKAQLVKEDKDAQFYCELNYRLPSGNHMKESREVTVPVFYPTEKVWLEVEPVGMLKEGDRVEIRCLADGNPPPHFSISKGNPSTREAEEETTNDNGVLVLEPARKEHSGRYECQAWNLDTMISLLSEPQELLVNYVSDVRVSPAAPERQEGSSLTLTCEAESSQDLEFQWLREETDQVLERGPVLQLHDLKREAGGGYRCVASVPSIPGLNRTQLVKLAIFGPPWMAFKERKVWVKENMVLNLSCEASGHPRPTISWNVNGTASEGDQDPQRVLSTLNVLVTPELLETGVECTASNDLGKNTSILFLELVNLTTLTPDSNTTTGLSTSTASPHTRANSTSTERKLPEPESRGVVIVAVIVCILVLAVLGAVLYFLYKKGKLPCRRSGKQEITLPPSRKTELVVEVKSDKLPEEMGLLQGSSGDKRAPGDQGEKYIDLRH

B1: chimeric 2107 (antibody, V domains shown)
VH: QVQLKESGPGLVQSSQTLSLTCTVSGFSLTSNGVSWVRQPPGKGLEWIAAISSGGSTYYNSAFKSRLSISRNTSKSQVLLKMNSLQTEDTGMYFCARHRPFYFDYWGQGVMVTVSS
VL: DIQVTQSPSLLSASVGDRVTLNCKGSQNIYKSLAWFRLKRGEAPKLLIYDANSLQTGIPSRFSGSGSGTDFTLTITSLQPEDVATYFCQQYYSGYTFGAGTKLELK
B2: h2107_VH2 + h2107_VL2 (antibody, V domains shown)
VH: QVTLKESGPVLVKPTETLTLTCTVSGFSLTSNGVSWVRQPPGKALEWIAAISSGGSTYYNSAFKSRLSISRDTSKSQVVLTMTNMDPVDTATYYCARHRPFYFDYWGQGTLVTVSS
VL: DIQMTQSPSSLSASVGDRVTITCKGSQNIYKSLAWFQLKPGKVPKLLIYDANSLQTGIPSRFSGSGSGTDFTLTISSLQPEDVATYYCQQYYSGYTFGGGTKVEIK
notes: also called h2107VH2VL2; VH2VL2
B3: chimeric 1749 (antibody, V domains shown)
VH: DVKLVESGGDLVKPGGSLKLSCAASGFTFSSYIMSWVRQTPEKRLEWVATISSGGSSTYYPDSVKGRFTISRDNAKNTLYLQMSSLKSEDTAMYYCTRDDDYDVKVFAYWGQGTLVTVSA
VL: DIVMSQSPSSLAVSAGEKVTMNCKSSRSLLNSRIRKNYLAWYQQKPGQSPKLLIYWASTRESGVPDRFTGSGSGTDFTLTISSVQAEDLAVYYCKQSYNLLTFGAGTKLELK
B4: Recombinant human Fc-tagged MCAM IgG1-2A (human MCAM domains 1 and 2, amino acids 19-242) (Fc fusion)
chain: PRVAGVPGEAEQPAPELVEVEVGSTALLKCGLSQSQGNLSHVDWFSVHKEKRTLIFRVRQGQGQSEPGEYEQRLSLQDRGATLALTQVTPQDERIFLCQGKRPRSQEYRIQLRVYKAPEEPNIQVNPLGIPVNSKEPEEVATCVGRNGYPIPQVIWYKNGRPLKEEKNRVHIQSSQTVESSGLYTLQSILKAQLVKEDKDAQFYCELNYRLPSGNHMKESREVT
notes: also called human MCAM IgG1-2A; MCAM Fc domains 1 and 2; not shown: human Fc tag

Legend:
[1] = target: T1, human MCAM (melanoma cell adhesion …); assay: blocking assay of the re-expressed antibodies (Table 7 'Blocking IC50'; laminin/FACS assay of paragraph 438): % inhibition of laminin 411 binding to hMCAM-expressing CHO cells
Method: Following incubation for 30-45 minutes, the cells were washed and anti-laminin conjugated to AF650 (NovusBio) was added to detect the bound laminin. The cells were run on a flow cytometer to measure the laminin binding signal.

[2] = target: recombinant human laminin 411 (Biolamina) (human, UniProt Q16363 25-1823; P07942 22-1786; P11047 34-1609); assay: SPR, Biacore T200, steady state, Fc-tagged MCAM IgG1-2A captured by anti-Fc, laminin as analyte

Row | Binder | IC50 (read off the curve) [1] [µg/mL] | Kd [2] [nM]
1 | B1 | ~0.5 | 
2 | B2 | ~0.8 | 
3 | B3 | ~0.4 | 
4 | B4 |  | 66
